Source: the supplement of paper PMC7877785
± gives the uncertainty stated by the source.

Test: self-splicing fitness, log relative to wild type (ln ratio); higher = more splicing; Tetrahymena group I intron in knt gene, E. coli kanamycin selection, DiMSum; sequences stand for … in CUCUCU…GGAGGGAAAAGUUAUCAGGCAUGCACCUGGUAGCUAGUCUUUAAACCAAUAGAUUGCAUCGGUUUAAAAGGCAAGACCGUCAAAUUGCGGGAAAGGGGUCAACAGCCGUUCAGUACCAAGUCUCAGGGGAAACUUUGAGAUGGCCUUGCAAAGGGUAUGGUAAUAAGCUGACGGACAUGGUCCUAACCACGCAGCCAAGUCCUAAGUCAACAGAUCUUCUGUUGAUAUGGAUGCAGUUCACAGACUAAAUGUCGGUCGGGGAAGAUGUAUUCUUCUCAUAAGAUAUAGUCGGACCUCUCCUUAAUGGGAGCUAGCGGAUGAAGUGAUGCAACACUGGAGCCGCUGGGAACUAAUUUGUAUGCGAAAGUAUAUUGAUUAGUUUUGGAGUACUCGUGGUCG
Procedure, shortened: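 Library with all eight P1ex-region intron nucleotides randomised, intron inside the knt kanamycin-resistance gene on pET-22b(+), in E. coli BL21(DE3). Cells grew overnight at 37°C or 30°C on LB agar with or without 25 μg/mL kanamycin (plus 100 μg/mL carbenicillin, 50 μM IPTG, 0.2% rhamnose), in six replicate transformations. Pooled colonies were amplicon-sequenced on Illumina HiSeq 2500. DiMSum fitness is the error-weighted combination of wild-type-normalised replicate fold changes, kanamycin versus none.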

Sequence	self-splicing fitness (ln) (30 °C)	self-splicing fitness (ln) (37 °C)
CAAUAGCAAUAUUACGUCCG	-0.215 ± 0.1	-0.267 ± 0.13
CAAUAGCAAUAUUACGUUGA	-2.59 ± 0.15	-3.59 ± 0.22
CAAUAGCAAUAUUACGUUGC	-4.82 ± 0.42	-3.05 ± 0.26
CACAAGCAAUAUUACGAAAA	-3.15 ± 0.17	-2.57 ± 0.24
CACAAGCAAUAUUACGACAG	0.0654 ± 0.065	0.61 ± 0.083
CACAAGCAAUAUUACGAGAU	-3.28 ± 0.1	-2.74 ± 0.12
CACAAGCAAUAUUACGAGCC	-4.37 ± 0.42	-2.17 ± 0.4
CACAAGCAAUAUUACGAGUC	-3.71 ± 0.17	-2.26 ± 0.16
CACAAGCAAUAUUACGAUGU	-3.96 ± 0.16	-1.99 ± 0.1
CACAAGCAAUAUUACGAUUA	-2.43 ± 0.13	-0.984 ± 0.12
CACAAGCAAUAUUACGCAGA	-2.72 ± 0.2	-1.43 ± 0.16
CACAAGCAAUAUUACGCAUA	-3.87 ± 0.19	-1.12 ± 0.11
CACAAGCAAUAUUACGCCAU	-4 ± 0.23	-3.48 ± 0.25
CACAAGCAAUAUUACGCCGA	-3.39 ± 0.26	-0.917 ± 0.15
CACAAGCAAUAUUACGCGCU	-4.44 ± 0.27	-2.33 ± 0.18
CACAAGCAAUAUUACGCUCG	-0.562 ± 0.089	-0.27 ± 0.092
CACAAGCAAUAUUACGCUUU	-4.46 ± 0.24	-2.81 ± 0.17
CACAAGCAAUAUUACGGAAA	-3.04 ± 0.19	-2.99 ± 0.2
CACAAGCAAUAUUACGGAGG	-2.14 ± 0.089	-0.826 ± 0.1
CACAAGCAAUAUUACGGCUC	-2.56 ± 0.18	-1.75 ± 0.16
CACAAGCAAUAUUACGGGGU	-3.61 ± 0.11	-3.18 ± 0.13

Sequence	self-splicing fitness (ln) (30 °C)	self-splicing fitness (ln) (37 °C)
CACAAGCAAUAUUACGGUAG	-0.991 ± 0.043	-0.207 ± 0.059
CACAAGCAAUAUUACGGUCA	-2.04 ± 0.1	-0.612 ± 0.1
CACAAGCAAUAUUACGGUGA	-3.09 ± 0.12	-0.931 ± 0.085
CACAAGCAAUAUUACGGUGU	-3.86 ± 0.14	-2.07 ± 0.14
CACAAGCAAUAUUACGUAAA	-3.74 ± 0.21	-2.39 ± 0.23
CACAAGCAAUAUUACGUCAG	-1.25 ± 0.051	-0.508 ± 0.064
CACAAGCAAUAUUACGUGCA	-2.56 ± 0.11	-1.55 ± 0.093
CACAAGCAAUAUUACGUGCU	-3.93 ± 0.18	-2.79 ± 0.15
CACAAGCAAUAUUACGUGGC	-3.15 ± 0.21	-2.64 ± 0.27
CACAAGCAAUAUUACGUUAA	-4.3 ± 0.27	-2.28 ± 0.13
CACAAGCAAUAUUACGUUCA	-1.31 ± 0.084	-1.49 ± 0.089
CACAAGCAAUAUUACGUUCC	-3.75 ± 0.19	-2.42 ± 0.23
CACCAGCAAUAUUACGAAUG	-0.784 ± 0.039	0.236 ± 0.058
CACCAGCAAUAUUACGACAC	-3.07 ± 0.27	-1.36 ± 0.22
CACCAGCAAUAUUACGACCG	-0.000395 ± 0.066	0.12 ± 0.089
CACCAGCAAUAUUACGACUG	-0.642 ± 0.054	0.144 ± 0.073
CACCAGCAAUAUUACGAGAC	–	-2.02 ± 0.32
CACCAGCAAUAUUACGAUAC	-3.58 ± 0.23	-1.94 ± 0.19
CACCAGCAAUAUUACGCACC	-3.63 ± 0.47	-2.31 ± 0.34
CACCAGCAAUAUUACGCCGA	-2.88 ± 0.19	-1.86 ± 0.21
CACCAGCAAUAUUACGCCUG	-1.11 ± 0.076	-0.247 ± 0.097
